Measured values from publication PMC10318897, “The structure of Leptospira interrogans GAPDH sheds light into an immunoevasion factor that can target the anaphylatoxin C5a of innate immunity” (Frontiers in Immunology, 2023).

B1: Leptospira interrogans glyceraldehyde-3-phosphate dehydrogenase (GAPDH) (enzyme)
chain: MTRIAINGFGRIGRLVFRAGIKDPNLEFVAINDLVTPDNLAYLLKYDSTHGRFQGTVEHTEKELIVDGKKILCVSERDPEKLPWKDLKVDYVIESTGLFTDRVGAEKHIKAGAKKVVISAPAKDKDIPTFVMGVNNEKYNPSNDHIVSNASCTTNCLAPIVKVVLDNWGIEEGLMTTIHATTATQPTVDGPSKKDFRGGRGAMQNIIPASTGAAKAVGLCIPEVNGKLTGMSFRVPTPDVSVVDLTVRTTKETSLKEISAKMKAASEGAMKGILGYTEDMVVSNDFVSSTLSSIFDMDACIELNSRFFKLVSWYDNEMGYSNRVLDLIRYMAKKG
notes: also called LiGAPDH; L. interrogans GAPDH; source: E. coli Rosetta(DE3), purified (HisTrap, Superdex 200 SEC); not shown: His6, N-terminal, kept

Key:
[1] = target: the molecule itself; test: SEC; HiLoad 16/60 Superdex 200 pg in 10 mM HEPES-NaOH (pH 7.4), 150 mM NaCl, 3.4 mM EDTA; elution volume compared with a calibration curve
[2] = target: B1; test: BLI; conditions: both partners purified

Binder | stoichiometry N [1] | kon [2] [M⁻¹ s⁻¹]
B1 | 4 | 
biotinylated-C5a (ligand, biotinylated (site not stated), also called immobilized C5a; source: bought: Abvance Biotech (ABVC5ARBIO1)) TLQKKIEEIAAKYKHSVVKKCCYDGACVNNDETCEQRAARISLGPRCIKAFTECCVVASQLRANISHKDMQLGR |  | 37.3 ± 0.2
